Consider two substances from publication PMC10593751.

For this assay, the target named is human IgG1 (human). Put plainly: ELISA; immobilized human IgG (hIgG1 or hIgG2) used to pull down CD64; n = 3. On the technique in general: ELISA stands for enzyme-linked immunosorbent assay.

In general, Kd refers to the concentration at which binding is half-saturated. Low readings indicate tighter binding, high ones weaker binding. Substance “CD64 engineered at the N-terminus with the CKAAKNK (CK) tissue homing peptide (receptor)” displayed a dissociation constant Kd of 53.6 pM. This lies in the picomolar range.

“wild-type CD64 (Fc-gamma receptor 1) (from UniProt P12314 16-374)” displayed a Kd of 58.9 pM.
